Results from publication PMC7577714, “Regulation of chaperone function by coupled folding and oligomerization” (Science Advances, 2020).

B1: Skp(WT), seventeen kilodalton protein, periplasmic chaperone of Escherichia coli (natural protein, E. coli, UniProt P0AEU7 21-161, looked up)
chain: ADKIAIVNMGSLFQQVAQKTGVSNTLENEFKGRASELQRMETDLQAKMKKLQSMKAGSDRTKLEKDVMAQRQTFAQKAQAFEQDRARRSNEERGKLVTRIQTAVKSVANSQDIDLVVDANAVAYNSSDVKDITADVLKQVK
notes: Stands in a monomer-trimer equilibrium; the active form is the homotrimer; The thrombin-cleavable His6-tag of pET28b was not cleaved; Isotope-labelled for NMR in some samples; source: E. coli BL21-(λ DE3)-Lemo, purified (Ni-NTA, SEC); not shown: His6, N-terminal, kept
B2: Skp(A103L) (natural protein, E. coli, UniProt P0AEU7 21-161, looked up)
chain: ADKIAIVNMGSLFQQVAQKTGVSNTLENEFKGRASELQRMETDLQAKMKKLQSMKAGSDRTKLEKDVMAQRQTFAQKAQAFEQDRARRSNEERGKLVTRIQTLVKSVANSQDIDLVVDANAVAYNSSDVKDITADVLKQVK
notes: Monomer-trimer equilibrium essentially as the wild type; source: E. coli BL21-(λ DE3)-Lemo, purified (Ni-NTA, SEC); not shown: His6, N-terminal, kept
B3: Skp(A108L) (natural protein, E. coli, UniProt P0AEU7 21-161, looked up)
chain: ADKIAIVNMGSLFQQVAQKTGVSNTLENEFKGRASELQRMETDLQAKMKKLQSMKAGSDRTKLEKDVMAQRQTFAQKAQAFEQDRARRSNEERGKLVTRIQTAVKSVLNSQDIDLVVDANAVAYNSSDVKDITADVLKQVK
notes: Monomer-trimer equilibrium strongly shifted toward the monomer; also called Skp(108L); source: E. coli BL21-(λ DE3)-Lemo, purified (Ni-NTA, SEC); not shown: His6, N-terminal, kept
B4: Skp(A103R) (natural protein, E. coli, UniProt P0AEU7 21-161, looked up)
chain: ADKIAIVNMGSLFQQVAQKTGVSNTLENEFKGRASELQRMETDLQAKMKKLQSMKAGSDRTKLEKDVMAQRQTFAQKAQAFEQDRARRSNEERGKLVTRIQTRVKSVANSQDIDLVVDANAVAYNSSDVKDITADVLKQVK
notes: Monomer-trimer equilibrium shifted toward the monomer; source: E. coli BL21-(λ DE3)-Lemo, purified (Ni-NTA, SEC); not shown: His6, N-terminal, kept
B5: Skp(A108R) (natural protein, E. coli, UniProt P0AEU7 21-161, looked up)
chain: ADKIAIVNMGSLFQQVAQKTGVSNTLENEFKGRASELQRMETDLQAKMKKLQSMKAGSDRTKLEKDVMAQRQTFAQKAQAFEQDRARRSNEERGKLVTRIQTAVKSVRNSQDIDLVVDANAVAYNSSDVKDITADVLKQVK
notes: Fully monomeric up to 1 mM; source: E. coli BL21-(λ DE3)-Lemo, purified (Ni-NTA, SEC); not shown: His6, N-terminal, kept

What was measured:
Skp(V117P) (E. coli) = Skp(V117P) (E. coli) (UniProt P0AEU7); test: solution NMR (signal intensities of monomer and trimer) + SEC-MALS; fraction of monomer against total Skp concentration, 25°C, 20 mM MES pH 6.5, 150 mM NaCl; monomer to trimer; C0.5 is the protein concentration at which half of the molecules are monomeric
[1] = molecular target: tOmpA, the eight-stranded transmembrane domain of OmpA (residues 1 to 177); test: NMR quantification of Skp-bound tOmpA after complex assembly (holdase assay); excess of denatured [U-2H,15N]-tOmpA added dropwise to unlabeled Skp in 20 mM MES pH 6.5, 150 mM NaCl, aggregate spun down, tOmpA signals in 2D [15N,1H]-TROSY of the supernatant, 37°C, normalised to Skp(WT)
[2] = molecular target: the molecule itself; test: SEC-MALS; Skp variants alone, elution concentration ≃80 μM, 25°C, 20 mM MES pH 6.5, 150 mM NaCl; monomer to trimer
P0AEU7 [3] = test: as above
[4] = molecular target: the molecule itself; test: solution NMR (signal intensities of monomer and trimer) + SEC-MALS; fraction of monomer against total Skp concentration, 25°C, 20 mM MES pH 6.5, 150 mM NaCl; monomer to trimer; C0.5 is the protein concentration at which half of the molecules are monomeric
[5] = molecular target: the molecule itself; test: SEC-MALS; Skp variants alone, elution concentration ≃80 μM, 25°C, 20 mM MES pH 6.5, 150 mM NaCl; monomer to trimer; remark: listed apart in the source
[6] = molecular target: the molecule itself; test: solution NMR (signal intensities of monomer and trimer) + SEC-MALS; fraction of monomer against total Skp concentration, 25°C, 20 mM MES pH 6.5, 150 mM NaCl; monomer to trimer; C0.5 is the protein concentration at which half of the molecules are monomeric; remark: listed apart in the source
P0AEU7 [7] = test: solution NMR (signal intensities of monomer and trimer); Skp variants alone at 37°C, 20 mM MES pH 6.5, 150 mM NaCl; monomer to trimer; conditions: other: solution NMR (signal intensities of monomer and trimer)

Molecule | C0.5 (Skp(V117P) (E. coli)) | Skp activity (% of WT), amount of Skp-bound tOmpA [1] | stoichiometry N [2] | Monomer (%) at c ≃ 80 μM (P0AEU7 [3]) | C0.5 [4] | Trimer (%) at c ≃ 80 μM [5] | stoichiometry N [6] | monomer (%) at 1 mM, 37°C (P0AEU7 [7]) | monomer (%) at 37°C (P0AEU7 [7])
Skp(V117P) (from UniProt P0AEU7 21-161) (natural protein) | > 1000 µM | 1 % of WT |  |  |  |  |  |  | 
B1 |  | 100 % of WT | 3 | 3% | 1.5 µM | 97% |  |  | 
B2 |  | 100 % of WT |  | 6% | 1.5 µM | 94% | 3 |  | 
B3 |  | 55 % of WT |  | 53% | 80 ± 20 µM | 47% | 3 | around 95% monomer at a concentration of 1 mM | more than 80% in its monomeric state
B4 |  | 87 % of WT |  | 14% | 7 ± 2 µM | 86% | 3 |  | 
B5 |  | 1 % of WT |  |  | > 1000 µM |  |  |  | 
